Biological target: T1, GST-PCAF (aa 352–832) (human, UniProt Q92831 352-832)
T1 construct: PCAF (KAT2B), residues 352-832, fused to GST; Written GST-PCAF; source: bacterially expressed and purified
Assay: pull-down; purified VRK1-His and GST-PCAF (aa 352–832) incubated in 20 mM Tris–HCl pH 7.5, 5 mM MgCl2, 0.5 mM DTT, 150 mM KCl at 37 °C for 45 min; Glutathione Sepharose 4B overnight at 4 °C; SDS-PAGE, Coomassie staining; dose-dependent
Conditions: both partners purified

T1 sequence (Q92831 352-832): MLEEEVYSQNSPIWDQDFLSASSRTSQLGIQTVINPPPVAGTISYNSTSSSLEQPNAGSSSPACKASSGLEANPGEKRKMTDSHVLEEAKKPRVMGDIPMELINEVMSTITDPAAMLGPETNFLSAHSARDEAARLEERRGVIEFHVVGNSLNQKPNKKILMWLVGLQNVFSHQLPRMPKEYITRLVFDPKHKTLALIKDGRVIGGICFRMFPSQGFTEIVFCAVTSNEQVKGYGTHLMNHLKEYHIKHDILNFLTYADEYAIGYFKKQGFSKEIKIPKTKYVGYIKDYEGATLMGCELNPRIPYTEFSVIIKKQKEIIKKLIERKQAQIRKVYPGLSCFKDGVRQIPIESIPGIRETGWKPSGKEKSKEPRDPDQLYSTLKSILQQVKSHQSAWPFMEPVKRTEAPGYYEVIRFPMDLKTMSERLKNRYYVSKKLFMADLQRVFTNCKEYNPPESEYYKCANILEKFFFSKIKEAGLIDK

binding result: binds
B1: VRK1-His (enzyme, human, UniProt Q99986 1-396, looked up)
chain: MPRVKAAQAGRQSSAKRHLAEQFAVGEIITDMAKKEWKVGLPIGQGGFGCIYLADMNSSESVGSDAPCVVKVEPSDNGPLFTELKFYQRAAKPEQIQKWIRTRKLKYLGVPKYWGSGLHDKNGKSYRFMIMDRFGSDLQKIYEANAKRFSRKTVLQLSLRILDILEYIHEHEYVHGDIKASNLLLNYKNPDQVYLVDYGLAYRYCPEGVHKEYKEDPKRCHDGTIEFTSIDAHNGVAPSRRGDLEILGYCMIQWLTGHLPWEDNLKDPKYVRDSKIRYRENIASLMDKCFPEKNKPGEIAKYMETVKLLDYTEKPLYENLRDILLQGLKAIGSKDDGKLDLSVVENGGLKAKTITKKRKKEIEESKEPGVEDTEWSNTQTEEAIQTRSRTRKRVQK
notes: VRK1 with a His tag, bacterially expressed and purified; Printed both as His-VRK1 (results) and VRK1-His (methods); the end of the tag cannot be told; also called His-VRK1; source: bacterially expressed and purified
